The test has as its target human IL-6 (residues 3-185) displayed on the surface of yeast (human) (UniProt P05231). The test can be described thus: flow cytometry titration of IL-6Rα ECD on IL-6-displaying yeast.

pKd: −log10 of the molar value.

Substance “human IL-6Rα extracellular domain (ECD), residues 89-303 of the mature protein, with C-terminal biotin acceptor peptide and hexahistidine, biotinylated (from UniProt P08887 108-322) (receptor)” gave a pKd of 7.06.

As a reminder, the pKd is −log10 of the Kd, conventionally taken in molar units. A higher pKd goes with a low Kd.

The values are drawn from patent publication US20220251222A1, “IL-6Ralpha/IL-8R BISPECIFIC BINDING AGENTS FOR INHIBITING CANCER CELL MIGRATION” (The Johns Hopkins University, priority 2019, published 2022).
